# From US7927849B2, “Laccase enzyme and use thereof” (AB Enzymes OY, priority 2004, dated 2011)
# B1: TaLcc1: Recombinant Thielavia arenaria ALKO4197 laccase 1 (SEQ ID NO: 12) produced in Trichoderma reesei strains RF5597/RF5598 (protein)
# chain: MKSWAAAVALMVGILSPHAAAAPPANPVQRDMLQVLEARQSGPTCNTPSNRACWTNGFDINTDYEVSTPNTGRTVAYQLTLTEKENWIGPDGVLKNVVMLVNDKIIGPTIRANWGDNIEVTVINNLKTNGTSMHWHGLRQLGNVFNDGANGVTECPIPPKGGRKTYKFRATQYGTSWYHSHFSAQYGNGVVGTIQIDGPASLPYDIDLGVFPLMDYYYRSADELVHFTQSNGAPPSDNVLFNGTARHPETGAGQWYNVTLTPGKRHRLRIINTSTDNHFQVSLVGHNMTVIATDMVPVNAFTVSSLFLAVGQRYDVTIDANSPVGNYWFNVTFGDGLCGSSNNKFPAAIFRYQGAPATLPTDQGLPVPNHMCLDNLNLTPVVTRSAPVNNFVKRPSNTLGVTLDIGGTPLFVWKVNGSAINVDWGKPILDYVMSGNTSYPVSDNIVQVDAVDQWTYWLIENDPTNPIVSLPHPMHLHGHDFLVLGRSPDELPSAGVRHIFDPAKDLPRLKGNNPVRRDVTMLPAGGWLLLAFKTDNPGAWLFHCHIAWHVSGGLSVDFLERPNDLRTQLNSNAKRADRDDFNRVCREWNAYWPTNPFPKIDSGLRHRFVEESEWMVR
# modifications: Thielavia arenaria ALKO4197; (1)..(617) Deduced amino acid sequence of Thielavia arenaria ALKO4197 laccase 1 (Ta Lcc1)
# Tests used:
# [1] = Denim bleaching, effect of enzyme dosage (Wascator); conditions: 60° C., pH 6
# Experimental: Lee Cooper Jeans previously washed with ECOSTONE® cellulases (Example 7) were treated with a TaLcc1 laccase product from Trichoderma strain RF5598 and DeniLite Base from Novozymes using different laccase dosages. The laccase treatments were performed with Electrolux's Wascator FOM 71 CLS washer extractor under optimal conditions for each enzyme, shown in Table 13. Methyl syringate (Example 7) was used as a mediator. Laccase was inactivated after draining by raising the pH above 11 by NaOH (10 min, 60° C.) and rinsing 3 times. The fabrics were dried in a tumbler.
# The bleaching effect was evaluated by measuring the colour after laccase treatment as reflectance values (as in Example 7) and comparing the values to previously measured values after cellulase treatment.
# [2] = Stain removal with laccases, grass; conditions: 60 min, pH 6
# Experimental: (§1) The TaLcc1 (RF5598) and Denilite II Base laccase preparations were tested for their ability to remove stains. The following artificially soiled test cloths were used: grass soiling (Art. 164, EMPA Testmaterialen, Germany), tea soiling (Art. 167, EMPA Testmaterialen, Germany). The fabric was cut in 5.8×5.8 cm swatches. Laccase treatments were performed in LP-2 Launder Ometer as follows. About 5 g of soiled fabrics were loaded into 1.2 liter containers containing 150 ml Mc Ilvaine's citrate phosphate buffer pH 6 and the containers were temperated. Enzymes with or without the mediator (methyl syringate, DeniLite II Assist, Novozymes) were dosed as laccase activity units (Example 7). Enzyme dosage was 200 nkat/g and mediator dosage 10 mg/g of the weight of fabric, except at 40° C. also dosages of 20 nkat/g and 2 mg/g were used. The Launder Ometer was run at 40, 50 or 60° C. and pH 6 for 60 min. After that the swatches were carefully rinsed under running water and in shake flasks containing warm water and dried in the air.
# (§2) The stain removal effect was evaluated by measuring the colour as reflectance values using L*a*b* color space coordinates (Example 7). The colour of the swatches was measured before and after the laccase treatment.
# [3] = Specific activity on ABTS; format: biochemical; conditions: 25 mM succinate buffer pH 4.5, 25° C.
# Experimental: The activity assay was carried out in accordance with the method developed by Niku-Paavola et al. (1988). The sample was diluted with 0.025 M succinate buffer, pH 4.5. […] The activity is expressed as nano katals.
# Specific activities of the purified Thielavia laccase were determined towards different laccase substrates.
# [4] = Stain removal with laccases, tea; conditions: 60 min, pH 6
# Experimental: as §1, §2
# [5] = Isoelectric focusing (pI); format: physicochemical; conditions: pH range 3-9, ABTS staining
# Experimental: Molecular weight of the Thielavia arenaria laccase (wt TaLcc1) was determined on SDS-PAGE according to Laemmli (1970). The gels used in the SDS-PAGE analysis were ready-made 12% Tris HCl gels (BioRad). Protein bands were visualized by staining with Coomassie Brilliant Blue (R 350; Pharmacia) and compared with molecular weight markers (Prestained Protein Marker Broad Range #7708S; New England BioLabs, Beverly, Mass.). The molecular weight of the Thielavia areanaria laccase was approximately 80 kDa. The isoelectric point of the laccase was determined with isoelectric focusing within the pH range of 3-9 (Pharmalyte IEF, Pharmacia) on a LKB 2117 Multiphor II Electrophoresis System (LKB Pharmacia, Bromma, Sweden) according to the manufacturer's instructions.
# The purified recombinant Thielavia arenaria TaLcc1 was characterized in terms of pH optimum, thermal stability, and pI as described in Example 2. The molecular weight was determined by MALDI-TOF mass spectrometry on a Ultraflex™ time-of-flight instrument (BrukerDaltonics, Germany) as previously described (Palonen et al., 2003). The redox potential of TaLcc1 was also determined with a combined Pt-AgCl/KCl microelectrode at pH 5.0 according to Sigoillot et al (2004)
# [6] = Denim bleaching at different temperatures (Launder Ometer); conditions: 200 nkat/g, 30 min, pH 6
# Experimental: The test system and denim were as in Example 7, except that the conditions during the laccase and mediator treatment in Launder were 30 min, pH 6 and temperature 30-80° C. Also, the enzyme was inactivated by an alkaline treatment instead of raising the temperature in Launder as follows. After removing swatches from the containers they were soaked in warm water containing NaOH (pH 11.5) for 10 min and rinsed carefully with warm water. The swatches were dried half-dry in a tumbler and after that air dried. The bleaching effect was evaluated by measuring the colour as reflectance values as in Example 7.
# [7] = 20 nkat/g, mediator 1 mg/g, 30 min
# [8] = 20 nkat/g, mediator 1 mg/g, 60 min
# [9] = 100 nkat/g, mediator 5 mg/g, 30 min
# [10] = 100 nkat/g, mediator 5 mg/g, 60 min
# [11] = 20 nkat/g, mediator 2 mg/g, 40° C.
# [12] = 200 nkat/g, mediator 0 mg/g, 40° C.
# [13] = 200 nkat/g, mediator 0 mg/g, 60° C.
# [14] = 200 nkat/g, mediator 10 mg/g, 40° C.
# [15] = 200 nkat/g, mediator 10 mg/g, 50° C.
# [16] = 200 nkat/g, mediator 10 mg/g, 60° C.
molecule,measurement,setting,value
B1,Increase of L*,[1]; [7],12.24
same,L* after laccase treatment,[1]; [7],40.61
same,b* after laccase treatment,[1]; [7],−16.16
same,Increase of L*,[1]; [8],15.09
same,L* after laccase treatment,[1]; [8],42.72
same,b* after laccase treatment,[1]; [8],−15.61
same,Increase of L*,[1]; [9],21.88
same,L* after laccase treatment,[1]; [9],49.84
same,b* after laccase treatment,[1]; [9],−13.75
same,Increase of L*,[1]; [10],25.68
same,L* after laccase treatment,[1]; [10],53.46
same,b* after laccase treatment,[1]; [10],−11.64
same,Grass L*,[2]; [11],80.16
same,Grass a*,[2]; [11],−0.73
same,Grass b*,[2]; [11],16.20
same,Grass L*,[2]; [12],80.25
same,Grass a*,[2]; [12],−4.22
same,Grass b*,[2]; [12],17.41
same,Grass L*,[2]; [13],79.38
same,Grass a*,[2]; [13],−4.19
same,Grass b*,[2]; [13],17.77
same,Grass L*,[2]; [14],80.34
same,Grass a*,[2]; [14],0.47
same,Grass b*,[2]; [14],16.51
same,Grass L*,[2]; [15],80.60
same,Grass a*,[2]; [15],−0.18
same,Grass b*,[2]; [15],17.65
same,Grass L*,[2]; [16],80.6
same,Grass a*,[2]; [16],0.02
same,Grass b*,[2]; [16],18.71
same,Specific activity on ABTS,[3],910 nkat/mg
same,Tea L*,[4]; [11],77.17
same,Tea a*,[4]; [11],4.65
same,Tea b*,[4]; [11],24.40
same,Tea L*,[4]; [12],75.99
same,Tea a*,[4]; [12],5.59
same,Tea b*,[4]; [12],23.54
same,Tea L*,[4]; [13],76.98
same,Tea a*,[4]; [13],4.98
same,Tea b*,[4]; [13],21.20
same,Tea L*,[4]; [14],78.77
same,Tea a*,[4]; [14],3.93
same,Tea b*,[4]; [14],24.97
same,Tea L*,[4]; [15],79.52
same,Tea a*,[4]; [15],3.45
same,Tea b*,[4]; [15],23.74
same,Tea L*,[4]; [16],81.69
same,Tea a*,[4]; [16],2.91
same,Tea b*,[4]; [16],22.29
same,pI,[5],5.5-6.9
same,Increase of L*,"[6]; mediator 0 mg/g, 80° C.",0.64
same,L* after laccase treatment,"[6]; mediator 0 mg/g, 80° C.",30.27
same,b* after laccase treatment,"[6]; mediator 0 mg/g, 80° C.",−18.62
same,Increase of L*,"[6]; mediator 10 mg/g, 30° C.",4.10
same,L* after laccase treatment,"[6]; mediator 10 mg/g, 30° C.",33.68
same,b* after laccase treatment,"[6]; mediator 10 mg/g, 30° C.",−19.17
same,Increase of L*,"[6]; mediator 10 mg/g, 40° C.",8.68
same,L* after laccase treatment,"[6]; mediator 10 mg/g, 40° C.",37.49
same,b* after laccase treatment,"[6]; mediator 10 mg/g, 40° C.",−18.64
same,Increase of L*,"[6]; mediator 10 mg/g, 50° C.",14.59
same,L* after laccase treatment,"[6]; mediator 10 mg/g, 50° C.",42.99
same,b* after laccase treatment,"[6]; mediator 10 mg/g, 50° C.",−17.06
same,Increase of L*,"[6]; mediator 10 mg/g, 60° C.",18.42
same,L* after laccase treatment,"[6]; mediator 10 mg/g, 60° C.",47.56
same,b* after laccase treatment,"[6]; mediator 10 mg/g, 60° C.",−14.55
same,Increase of L*,"[6]; mediator 10 mg/g, 70° C.",17.85
same,L* after laccase treatment,"[6]; mediator 10 mg/g, 70° C.",46.94
same,b* after laccase treatment,"[6]; mediator 10 mg/g, 70° C.",−13.82
same,Increase of L*,"[6]; mediator 10 mg/g, 80° C.",9.85
same,L* after laccase treatment,"[6]; mediator 10 mg/g, 80° C.",39.24
same,b* after laccase treatment,"[6]; mediator 10 mg/g, 80° C.",−15.74
